Experimental findings from PMC3900686 (2014) are described below.

Common to all, as to assay: ITC; LCMT-1 preloaded with SAH
Test [1] concerns the target PP2A core enzyme (A–C heterodimer), unmethylated ( |  ("mammalian …, UniProt P30153 1-589; P67775 1-309).
Test [2] has as its target methylated PP2A core enzyme (methylated AC heterodimer) ( |  ("mammalian …, UniProt P30153 1-589)); P67775 1-309, carboxyl methylation of the last leucine residue (Leu-309)).
The target in test [3] is PP2A catalytic Cα-subunit (free PP2Ac) ( ("mammalian PP2Ac"), UniProt P67775 1-309).
Sequence of PP2A catalytic Cα-subunit (free PP2Ac) (P67775 whole entry): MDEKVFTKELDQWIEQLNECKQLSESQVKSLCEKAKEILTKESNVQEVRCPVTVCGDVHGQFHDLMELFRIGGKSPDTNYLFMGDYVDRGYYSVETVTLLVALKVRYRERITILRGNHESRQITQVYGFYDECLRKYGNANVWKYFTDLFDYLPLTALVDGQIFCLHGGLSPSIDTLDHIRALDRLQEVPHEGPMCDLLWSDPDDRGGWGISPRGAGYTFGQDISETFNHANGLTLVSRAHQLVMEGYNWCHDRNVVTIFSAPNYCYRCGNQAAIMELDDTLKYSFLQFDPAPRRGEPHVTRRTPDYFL

Sequence of methylated PP2A core enzyme (methylated AC heterodimer) ( |  (P30153 whole entry, chain 1 of 2): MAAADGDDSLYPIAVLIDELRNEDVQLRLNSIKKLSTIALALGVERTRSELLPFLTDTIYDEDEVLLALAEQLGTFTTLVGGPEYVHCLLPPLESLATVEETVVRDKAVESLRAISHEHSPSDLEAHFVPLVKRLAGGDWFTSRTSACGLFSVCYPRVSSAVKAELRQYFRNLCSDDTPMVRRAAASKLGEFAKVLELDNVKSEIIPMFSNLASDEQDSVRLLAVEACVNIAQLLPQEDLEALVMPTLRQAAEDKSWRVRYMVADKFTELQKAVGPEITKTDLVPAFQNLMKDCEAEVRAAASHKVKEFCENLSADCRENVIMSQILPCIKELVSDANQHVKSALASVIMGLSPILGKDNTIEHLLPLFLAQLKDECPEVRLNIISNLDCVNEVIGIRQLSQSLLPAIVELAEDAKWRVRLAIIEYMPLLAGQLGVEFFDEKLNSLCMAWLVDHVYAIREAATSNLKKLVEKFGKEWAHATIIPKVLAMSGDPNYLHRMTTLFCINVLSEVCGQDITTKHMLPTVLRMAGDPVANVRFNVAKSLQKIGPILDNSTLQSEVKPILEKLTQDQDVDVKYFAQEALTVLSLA
Sequence of methylated PP2A core enzyme (methylated AC heterodimer) ( |  (P67775 whole entry, chain 2 of 2): as the sequence (P67775 whole entry) above
Sequence of PP2A core enzyme (A–C heterodimer), unmethylated ( |  (P30153 whole entry, chain 1 of 2): as the sequence (P30153 whole entry, chain 1 of 2) above
Sequence of PP2A core enzyme (A–C heterodimer), unmethylated ( |  (P67775 whole entry, chain 2 of 2): as the sequence (P67775 whole entry) above

B1: PP2A-specific leucine carboxyl methyltransferase 1 (LCMT-1) (enzyme)
chain: MATRQRESSITSCCSTSSCDADDEGVRGTCEDASLCKRFAVSIGYWHDPYIQHFVRLSKERKAPEINRGYFARVHGVSQLIKAFLRKTECHCQIVNLGAGMDTTFWRLKDEDLLPSKYFEVDFPMIVTRKLHSIKCKPPLSSPILELHSEDTLQMDGHILDSKRYAVIGADLRDLSELEEKLKKCNMNTQLPTLLIAECVLVYMTPEQSANLLKWAANSFERAMFINYEQVNMGDRFGQIMIENLRRRQCDLAGVETCKSLESQKERLLSNGWETASAVDMMELYNRLPRAEVSRIESLEFLDEMELLEQLMRHYCLCWATKGGNELGLKEITY
Consider B1, for which the dissociation constant (Kd) in test [1] was 140 nM; in test [2] it was 630 nM; in test [3] it was 560 nM.
